# Test results taken from patent US20260191954A1, “COMPOSITIONS AND METHODS FOR NEOADJUVANT TREATMENT IN CANCER” (INNATE PHARMA, priority 2022, published 2026).
# Several values for one entry are separate records, joined by “and”; a condition that tells them apart may be missing. Identical values can stand only once.
# T1: free membrane CD39 (mCD39) on monocytes (Homo sapiens, UniProt P49961)
# T1 construct: endogenous in cells; host or cells: monocytes and B cells in patients' blood
# T1 sequence (P49961 1-510): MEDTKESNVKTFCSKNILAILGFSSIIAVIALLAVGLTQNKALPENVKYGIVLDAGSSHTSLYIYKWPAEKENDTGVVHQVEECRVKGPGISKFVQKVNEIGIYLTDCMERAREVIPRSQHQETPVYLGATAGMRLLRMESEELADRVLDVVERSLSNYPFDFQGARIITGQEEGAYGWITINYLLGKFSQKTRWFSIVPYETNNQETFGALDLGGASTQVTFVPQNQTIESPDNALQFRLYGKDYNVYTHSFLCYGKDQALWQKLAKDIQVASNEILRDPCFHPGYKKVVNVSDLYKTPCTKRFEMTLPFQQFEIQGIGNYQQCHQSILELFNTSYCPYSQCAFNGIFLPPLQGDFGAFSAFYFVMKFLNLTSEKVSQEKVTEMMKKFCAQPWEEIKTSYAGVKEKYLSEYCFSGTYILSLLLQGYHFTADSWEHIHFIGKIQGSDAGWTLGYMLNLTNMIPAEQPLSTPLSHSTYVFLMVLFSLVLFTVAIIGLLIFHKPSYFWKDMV
# T2: membrane-bound CD39 on immune cells (Homo sapiens, UniProt P49961)
# T2 construct: To assess free CD39 on monocytes and B cells, blood samples are spiked with an antibody; endogenous in cells; host or cells: monocytes and B cells in patients' blood
# T2 sequence (P49961 1-510): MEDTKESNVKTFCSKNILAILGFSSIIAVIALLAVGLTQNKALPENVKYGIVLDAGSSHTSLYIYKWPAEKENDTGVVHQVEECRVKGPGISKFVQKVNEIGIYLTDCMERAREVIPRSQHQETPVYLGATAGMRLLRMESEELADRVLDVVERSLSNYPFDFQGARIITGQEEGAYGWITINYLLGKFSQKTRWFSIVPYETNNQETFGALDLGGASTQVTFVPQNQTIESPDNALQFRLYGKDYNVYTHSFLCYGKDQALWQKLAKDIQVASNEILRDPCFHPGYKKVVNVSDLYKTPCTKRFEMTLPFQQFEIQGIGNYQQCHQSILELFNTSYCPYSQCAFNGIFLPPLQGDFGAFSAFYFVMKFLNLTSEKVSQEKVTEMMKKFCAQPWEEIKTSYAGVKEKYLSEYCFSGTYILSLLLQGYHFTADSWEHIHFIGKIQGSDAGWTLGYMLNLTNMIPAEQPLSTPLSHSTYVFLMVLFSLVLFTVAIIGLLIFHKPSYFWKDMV
# T3: CD39 enzyme activity (Homo sapiens, UniProt P49961)
# T3 construct: Tumour samples were obtained from patients with pancreatic cancer and assessed for CD39 enzyme activity; from tissue; host or cells: patients' tumour biopsies (tumour, stroma, vasculature), screening vs Day 15
# T3 sequence (P49961 1-510): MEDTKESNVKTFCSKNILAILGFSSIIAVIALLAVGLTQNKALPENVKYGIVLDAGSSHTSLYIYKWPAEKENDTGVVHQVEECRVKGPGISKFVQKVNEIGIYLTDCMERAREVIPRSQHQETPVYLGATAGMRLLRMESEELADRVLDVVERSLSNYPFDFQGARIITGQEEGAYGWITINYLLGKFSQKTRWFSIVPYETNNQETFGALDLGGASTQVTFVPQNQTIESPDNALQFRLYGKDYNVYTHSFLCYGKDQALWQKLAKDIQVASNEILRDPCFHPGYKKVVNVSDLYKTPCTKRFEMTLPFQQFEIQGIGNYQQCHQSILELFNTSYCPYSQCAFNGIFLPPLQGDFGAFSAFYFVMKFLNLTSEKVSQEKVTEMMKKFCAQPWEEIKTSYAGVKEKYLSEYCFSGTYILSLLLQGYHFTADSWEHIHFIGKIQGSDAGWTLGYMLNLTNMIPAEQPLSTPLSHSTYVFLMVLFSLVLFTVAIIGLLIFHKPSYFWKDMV
# Key:
# [1] = target: T1, free membrane CD39 (mCD39) on monocytes; experiment: Indirect response PD model: IPH5201 concentration vs free mCD39 on monocytes, phase 1 patients; assay type: in vivo
# Description: (§1) PK/PD modelling and simulation were used to guide selection of doses. IPH5201 PK data from 45 patients and PD data of free membrane CD39 (mCD39) occupancy on monocytes from 43 patients were available.
# An indirect response PD model (inhibition on Kin) was then built to describe the relationship between IPH5201 concentrations and free mCD39 on monocytes (FIG. 10). The model accurately predicted CD39free+ of monocytes (%). […] The final indirect response model was then used for parametric simulation.
# [2] = Pharmacokinetics of IPH5201 in phase 1 patients; assay type: in vivo, human
# Protocol: A first-in-human, multicentre, non-randomised, open-label, phase 1 study was conducted in order to assess the safety, efficacy, pharmacokinetics (PK) and pharmacodynamics (PD) of IPH5201±durvalumab (Imfinzi™) in patients with advanced solid tumours. The study consisted of two consecutive dose-escalation parts: • Part 1: Ascending doses of IPH5201 (100, 300, 1000 and 3000 mg) every 3 weeks (Q3W). • Part 2: Ascending doses of IPH5201 (300, 1000 and 3000 mg) and 1500 mg durvalumab Q3W.
# as §1
# On the left hand panel, curves from bottom to top represent 100 mg, 300 mg, 1000 mg and 3000 mg doses of IPH5201; on the right hand panel curves from bottom to top represent 300 mg, 1000 mg (up to the 21 day time point) and 3000 mg doses of IPH5201. The PK of IPH5201 was non-linear at ≤300 mg and linear at ≥1000 mg. Free soluble CD39 was above the lower limit of quantitation at cycle 1, day 2 or later in 6/40 patients (n=2, 100 mg; n=1, 1000 mg; n=3, 3000 mg).
# [3] = target: T2, membrane-bound CD39 on immune cells; experiment: Free CD39 on monocytes and B cells in patient blood (flow cytometry); assay type: in vivo
# Protocol: CD39 occupancy by IPH5201 in samples from patients was determined by assessing free soluble CD39 and free membrane bound CD39.
# To assess free CD39 on monocytes and B cells, blood samples are spiked with an antibody having the VH and VL of IPH5201 and a mouse Fc domain and labelled with a fluorochrome. A second non-competing anti-CD39 monoclonal antibody labelled with a distinct fluorochrome is used to bind to a site on CD39 distinct from the capture antibody. CD14, CD19 and CD45 are detected by incubation with anti-CD14, CD19 and CD45 monoclonal antibodies each labelled with a distinct fluorochrome. Binding is detected by flow cytometry.
# [4] = target: T3, CD39 enzyme activity; experiment: Tumoral CD39 enzyme activity in patient biopsies (Wachstein-Meisel assay); assay type: in vivo; conditions: for Significant overall decrease in CD39 enzymatic activity?: Day 15 vs screening biopsy
# [5] = serum IPH5201, fixed doses Q3W, mono or with durvalumab, FIG. 12
molecule,measurement,setting,value
IPH5201: humanized anti-CD39 antibody having the respective heavy and light chain amino acid sequences of SEQ ID NOS: 10 and 11 (antibody) heavy: QVQLVQSGAEVKKPGASVKVSCKASGYTFTDYNMHWVRQAPGQRLEWIGYIVPLNGGSTFNQKFKGRATITVDTSARTAYMELSSLRSEDTAVYYCARGGTRFAYWGQGTLVTVSSASTKGPSVFPLAPSSKSTSGGTAALGCLVKDYFPEPVTVSWNSGALTSGVHTFPAVLQSSGLYSLSSVVTVPSSSLGTQTYICNVNHKPSNTKVDKRVEPKSCDKTHTCPPCPAPEAEGAPSVFLFPPKPKDTLMISRTPEVTCVVVDVSHEDPEVKFNWYVDGVEVHNAKTKPREEQYNSTYRVVSVLTVLHQDWLNGKEYKCKVSNKALPSSIEKTISKAKGQPREPQVYTLPPSREEMTKNQVSLTCLVKGFYPSDIAVEWESNGQPENNYKTTPPVLDSDGSFFLYSKLTVDKSRWQQGNVFSCSVMHEALHNHYTQKSLSLSPGK light: DIVMTQSPDSLAVSLGERATINCRASESVDNFGVSFMYWFQQKPGQPPKLLIYGASNQGSGVPDRFSGSGSGTDFTLTISSLQAEDVAVYYCQQTKEVPYTFGGGTKVEIKRTVAAPSVFIFPPSDEQLKSGTASVVCLLNNFYPREAKVQWKVDNALQSGNSQESVTEQDSKDSTYSLSSTLTLSKADYEKHKVYACEVTHQGLSSPVTKSFNRGEC,Production rate constant,"[1]; indirect response PD model (inhibition on Kin), model parameter",20.5 h⁻¹
same,Maximum inhibition (IMAX) of CD39free+,"[1]; indirect response PD model, monocytes",0.926 and 0.92
same,population PK model best describing IPH5201 PK,[2]; PK data from 45 patients,2-compartment model with parallel linear and saturatable kinetics
same,dose range in which PK was linear,[2]; [5],≥ 1000 mg
same,dose range in which PK was non-linear,[2]; [5],≤ 300 mg
same,"free CD39 at C2D1, monocytes","[3]; 100 mg IPH5201 dose, cycle 2 day 1",full rebound
same,"free CD39 at C2D1, monocytes","[3]; 300 mg IPH5201 dose, cycle 2 day 1",partial rebound
same,"free CD39 at C2D1, B-cells","[3]; only the 100 mg IPH5201 dose, cycle 2 day 1",rebound
same,dose at which IPH5201 saturated binding of membrane-bound CD39 on immune cells,"[3]; patient samples, FIG. 11B",3000 mg
same,tumoral CD39 enzymatic activity,[4]; 3000 mg dose of IPH5201,showed a decrease in enzymatic activity
same,Significant overall decrease in CD39 enzymatic activity?,"[4]; Patient 1, Cohort 1000 mg, NSCLC (squamous)",No
same,Significant overall decrease in CD39 enzymatic activity?,"[4]; Patient 3, Cohort 1000 mg, Pancreatic",Yes
same,Significant overall decrease in CD39 enzymatic activity?,"[4]; Patient 4, Cohort 3000 mg, Pancreatic",Yes
same,Significant overall decrease in CD39 enzymatic activity?,"[4]; Patient 5, Cohort 3000 mg, Pancreatic",Yes
same,Significant overall decrease in CD39 enzymatic activity?,"[4]; Patient 6, Cohort 3000 mg, Pancreatic",Yes
same,Significant overall decrease in CD39 enzymatic activity?,"[4]; Patient 7, Cohort 3000 mg, NSCLC (squamous)",Yes
same,patients in whom tumoral CD39 enzymatic activity decreased,[4]; patients with available samples,5/8
